From patent EP4725970A1 (Fortvita Biologics Inc., dated 2026)
Read-outs that look alike come from different tables or passages of the source.

T1: human BCMA (full-length, on cells) (human, UniProt Q02223 1-184)
T1 sequence: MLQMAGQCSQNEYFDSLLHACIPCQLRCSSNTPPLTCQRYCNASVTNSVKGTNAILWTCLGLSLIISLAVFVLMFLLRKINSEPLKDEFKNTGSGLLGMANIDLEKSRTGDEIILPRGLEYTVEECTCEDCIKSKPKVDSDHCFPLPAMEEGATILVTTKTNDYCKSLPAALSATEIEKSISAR

T2: cyno CD3E&G-His/Free (cynomolgus monkey, UniProt Q95LI5 22-117; Q95LI7 23-113)
T2 construct: Bought recombinant heterodimer; also called monkey CD3 E&G
T2 sequence (looked up) 1: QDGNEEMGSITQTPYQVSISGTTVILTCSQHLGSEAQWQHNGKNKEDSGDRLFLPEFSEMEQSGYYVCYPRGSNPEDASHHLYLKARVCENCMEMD
T2 sequence (looked up) 2: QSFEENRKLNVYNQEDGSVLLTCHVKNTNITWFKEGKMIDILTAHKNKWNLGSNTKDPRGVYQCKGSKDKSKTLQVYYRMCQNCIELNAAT

B1: B3-7F5.3 (87) (7F5.3_sp34.87_497_triFab) (trispecific antibody, human IgG1, kappa, lambda, L234A L235A)
heavy 1: not shown
light 1: not shown
heavy 2: not shown
light 2: DIQMTQSPSSLSASVGDRVTITCRASQSISRYLNWYQDKPGKAPKLLIYAASSLQSGVPSRFSGSGSGTDFTLTISSLQPEDFATYYCQQKYFDITFGGGTKVEIKRTVAAPSVFIFPPSDECLKSGTASVVCLLNNFYPREAKVQWKVDNALQSGNSQESVTEQDSKDSTYSLSSTLTLSKADYEKHKVYACEVTHQGLSSPVTKSFNRGES
light 3: QAVVTQEPSLTVSPGGTVTLTCRSSTGAVTTSNYANWVQKKPGQAPRGLIGGTNKRAPGVPARFSGSLLGDKAALTLLGAQPEDEAEYYCALWYSNLWVFGQGTKLTVLGQPKAAPSVTLFPPSSEELQANKATLVCLISDFYPGAVTVAWKADSSPVKAGVETTTPSKQSNNKYAASSYLSLTPEQWKSHRSYSCQVTHEGSTVEKTVAPTECS
notes: also called Exemplary antibody No. 5
B2: B5 (87) (hz5E12_sp34.87_497_triFab) (trispecific antibody, human IgG1, kappa, lambda, L234A L235A)
heavy 1: not shown
light 1: DIVMTQSPDSLAVSLGERATINCRASESVDSYGITFMNWYQQKPGQPPKLLIYAASNQGSGVPDRFSGSGSGTDFTLTISSLQAEDVAVYYCQQSKEVPWTFGQGTKLEIKRTVAAPSVFIFPPSDEQLKSGTASVVCLLNNFYPREAKVQWKVDNALQSGNSQESVTEQDSKDSTYSLSSTLTLSKADYEKHKVYACEVTHQGLSSPVTKSFNRGEC
heavy 2: not shown
light 2: QAVVTQEPSLTVSPGGTVTLTCRSSTGAVTTSNYANWVQKKPGQAPRGLIGGTNKRAPGVPARFSGSLLGDKAALTLLGAQPEDEAEYYCALWYSNLWVFGQGTKLTVLGQPKAAPSVTLFPPSSEELQANKATLVCLISDFYPGAVTVAWKADSSPVKAGVETTTPSKQSNNKYAASSYLSLTPEQWKSHRSYSCQVTHEGSTVEKTVAPTECS
light 3: DIQMTQSPSSLSASVGDRVTITCRASQSISRYLNWYQDKPGKAPKLLIYAASSLQSGVPSRFSGSGSGTDFTLTISSLQPEDFATYYCQQKYFDITFGGGTKVEIKRTVAAPSVFIFPPSDECLKSGTASVVCLLNNFYPREAKVQWKVDNALQSGNSQESVTEQDSKDSTYSLSSTLTLSKADYEKHKVYACEVTHQGLSSPVTKSFNRGES
notes: also called Exemplary antibody No. 3
B3: JNJ-BCMA/CD3 (Teclistamab) (bispecific antibody, human IgG4 S228P, lambda, F234A L235A)
heavy 1: not shown
light 1: SYVLTQPPSVSVAPGQTARITCGGNNIGSKSVHWYQQPPGQAPVVVVYDDSDRPSGIPERFSGSNSGNTATLTISRVEAGDEAVYYCQVWDSSSDHVVFGGGTKLTVLGQPKAAPSVTLFPPSSEELQANKATLVCLISDFYPGAVTVAWKGDSSPVKAGVETTTPSKQSNNKYAASSYLSLTPEQWKSHRSYSCQVTHEGSTVEKTVAPTECS
heavy 2: EVQLVESGGGLVQPGGSLRLSCAASGFTFNTYAMNWVRQAPGKGLEWVARIRSKYNNYATYYAASVKGRFTISRDDSKNSLYLQMNSLKTEDTAVYYCARHGNFGNSYVSWFAYWGQGTLVTVSSASTKGPSVFPLAPCSRSTSESTAALGCLVKDYFPEPVTVSWNSGALTSGVHTFPAVLQSSGLYSLSSVVTVPSSSLGTKTYTCNVDHKPSNTKVDKRVESKYGPPCPPCPAPEAAGGPSVFLFPPKPKDTLMISRTPEVTCVVVDVSQEDPEVQFNWYVDGVEVHNAKTKPREEQFNSTYRVVSVLTVLHQDWLNGKEYKCKVSNKGLPSSIEKTISKAKGQPREPQVYTLPPSQEEMTKNQVSLTCLVKGFYPSDIAVEWESNGQPENNYKTTPPVLDSDGSFLLYSKLTVDKSRWQEGNVFSCSVMHEALHNHYTQKSLSLSLGK
light 2: QTVVTQEPSLTVSPGGTVTLTCRSSTGAVTTSNYANWVQQKPGQAPRGLIGGTNKRAPGTPARFSGSLLGGKAALTLSGVQPEDEAEYYCALWYSNLWVFGGGTKLTVLGQPKAAPSVTLFPPSSEELQANKATLVCLISDFYPGAVTVAWKADSSPVKAGVETTTPSKQSNNKYAASSYLSLTPEQWKSHRSYSCQVTHEGSTVEKTVAPTECS
notes: also called J&J BCMAxCD3
B4: B3-7F5.3 (24) (7F5.3_sp34.24_497_triFab) (trispecific antibody, human IgG1, kappa, lambda, L234A L235A)
heavy 1: not shown
light 1: not shown
heavy 2: not shown
light 2: DIQMTQSPSSLSASVGDRVTITCRASQSISRYLNWYQDKPGKAPKLLIYAASSLQSGVPSRFSGSGSGTDFTLTISSLQPEDFATYYCQQKYFDITFGGGTKVEIKRTVAAPSVFIFPPSDECLKSGTASVVCLLNNFYPREAKVQWKVDNALQSGNSQESVTEQDSKDSTYSLSSTLTLSKADYEKHKVYACEVTHQGLSSPVTKSFNRGES
light 3: QAVVTQEPSLTVSPGGTVTLTCRSSTGAVTTSNYANWVQKKPGQAPRGLIGGTNKRAPGVPARFSGSLLGDKAALTLLGAQPEDEAEYYCALWYSNLWVFGQGTKLTVLGQPKAAPSVTLFPPSSEELQANKATLVCLISDFYPGAVTVAWKADSSPVKAGVETTTPSKQSNNKYAASSYLSLTPEQWKSHRSYSCQVTHEGSTVEKTVAPTECS
notes: also called Exemplary antibody No. 6
B5: Roche-BCMA/CD3 (Alnuctamab) (bispecific antibody, human IgG1, kappa, L234A L235A)
chain: EVQLLESGGGLVQPGGSLRLSCAASGFTFSTYAMNWVRQAPGKGLEWVSRIRSKYNNYATYYADSVKGRFTISRDDSKNTLYLQMNSLRAEDTAVYYCVRHGNFGNSYVSWFAYWGQGTLVTVSSASVAAPSVFIFPPSDEQLKSGTASVVCLLNNFYPREAKVQWKVDNALQSGNSQESVTEQDSKDSTYSLSSTLTLSKADYEKHKVYACEVTHQGLSSPVTKSFNRGEC
heavy 1: not shown
light: EIVLTQSPGTLSLSPGERATLSCRASQSVSDEYLSWYQQKPGQAPRLLIHSASTRATGIPDRFSGSGSGTDFTLAISRLEPEDFAVYYCQQYGYPPDFTFGQGTKVEIKRTVAAPSVFIFPPSDRKLKSGTASVVCLLNNFYPREAKVQWKVDNALQSGNSQESVTEQDSKDSTYSLSSTLTLSKADYEKHKVYACEVTHQGLSSPVTKSFNRGEC
heavy 2: EVQLLESGGGLVQPGGSLRLSCAASGFTFSDNAMGWVRQAPGKGLEWVSAISGPGSSTYYADSVKGRFTISRDNSKNTLYLQMNSLRAEDTAVYYCAKVLGWFDYWGQGTLVTVSSASTKGPSVFPLAPSSKSTSGGTAALGCLVEDYFPEPVTVSWNSGALTSGVHTFPAVLQSSGLYSLSSVVTVPSSSLGTQTYICNVNHKPSNTKVDEKVEPKSCDKTHTCPPCPAPEAAGGPSVFLFPPKPKDTLMISRTPEVTCVVVDVSHEDPEVKFNWYVDGVEVHNAKTKPREEQYNSTYRVVSVLTVLHQDWLNGKEYKCKVSNKALGAPIEKTISKAKGQPREPQVCTLPPSRDELTKNQVSLSCAVKGFYPSDIAVEWESNGQPENNYKTTPPVLDSDGSFFLVSKLTVDKSRWQQGNVFSCSVMHEALHNHYTQKSLSLSPGK
notes: also called Roche-BCMAxCD3
B6: REGN-BCMA/CD3 (REGN5458) (bispecific antibody)
VH: EVQLVESGGGLVQPGGSLRLSCAASGFTFSNFWMTWVRQAPGKGLEWVANMNQDGSEKYYVDSVKGRFTISRDNAKSSLYLQMNSLRAEDTAVYYCARDREYCISTSCYDDFDYWGQGTLVTVSS
VL: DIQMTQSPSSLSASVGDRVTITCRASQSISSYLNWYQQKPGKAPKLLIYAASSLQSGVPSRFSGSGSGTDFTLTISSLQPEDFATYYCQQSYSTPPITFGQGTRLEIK
chain: EVQLVESGGGLVQPGRSLRLSCAASGFTFDDYSMHWVRQAPGKGLEWVSGISWNSGSKGYADSVKGRFTISRDNAKNSLYLQMNSLRAEDTALYYCAKYGSGYGKFYHYGLDVWGQGTTVTVSS

Assays:
[1] = target: T1, human BCMA (full-length, on cells); assay: cell-based or functional assay
human CD3E&G-His/Free = target: T3, human CD3E&G-His/Free (human, UniProt P07766 23-126; P09693 23-116); assay: BLI (Octet), 1:1 fit
T3 construct: Bought recombinant heterodimer; 'His/Free' as printed (one chain His-tagged); also called human CD3 E&G heterodimer

cyno CD3E&G-His/Free = target: T2, cyno CD3E&G-His/Free; assay: BLI (Octet), 1:1 fit
Cyno BCMA-His = target: T4, Cyno BCMA-His (cynomolgus monkey, UniProt A0A2K5UD97 1-53); assay: BLI (Octet), 1:1 fit
T4 construct: also called Cyno BCMA (ACRO BCA-C52H7); monkey BCMA

[2] = target: T1, human BCMA (full-length, on cells); assay: flow cytometry, GS-CHO-hBCMA cells
[3] = target: T1, human BCMA (full-length, on cells); assay: cell-based or functional assay; remark: listed apart in the source
[4] = target: human GPRC5D (full-length, on cells) (human, UniProt Q9NZD1 1-345); assay: cell-based or functional assay
[5] = target: T5, human CD3 (on Jurkat cells and human T cells) (human, UniProt P07766 23-207); assay: flow cytometry, human CD8 T cells
T5 construct: whole, on cells; the other chains of the complex on the cells are not described; also called CD3E

[6] = target: T5, human CD3 (on Jurkat cells and human T …); assay: flow cytometry, human CD4 T cells
[7] = target: T6, cynomolgus monkey BCMA (full-length, on cells) (cynomolgus monkey, UniProt A0A2K5UD97 1-183); assay: flow cytometry, GS-CHO-cynoBCMA cells
T6 construct: whole, on cells; also called cynoBCMA; GS-CHO-cynoBCMA

[8] = target: T5, human CD3 (on Jurkat cells and human T …); assay: flow cytometry, Jurkat cells
[9] = target: T1, human BCMA (full-length, on cells); assay: flow cytometry, GS-CHO-hBCMA cells; remark: listed apart in the source
[10] = target: T1, human BCMA (full-length, on cells); assay: cell-based or functional assay; remark: listed apart in the source

T6 sequence (A0A2K5UD97 entry or part of it): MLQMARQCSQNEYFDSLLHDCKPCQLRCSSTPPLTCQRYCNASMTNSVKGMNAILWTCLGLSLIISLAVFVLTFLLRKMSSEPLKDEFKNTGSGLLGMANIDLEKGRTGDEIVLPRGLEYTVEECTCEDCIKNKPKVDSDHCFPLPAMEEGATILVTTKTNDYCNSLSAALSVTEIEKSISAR
T3 sequence (P07766 23-126, chain 1 of 2): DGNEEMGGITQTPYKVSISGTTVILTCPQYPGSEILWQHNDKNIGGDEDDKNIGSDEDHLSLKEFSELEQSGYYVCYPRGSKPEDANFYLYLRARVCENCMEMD
T3 sequence (P09693 23-116, chain 2 of 2): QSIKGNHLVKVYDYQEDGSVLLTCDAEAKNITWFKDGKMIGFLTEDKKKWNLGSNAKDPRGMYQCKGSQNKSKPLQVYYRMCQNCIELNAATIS
T4 sequence (A0A2K5UD97 entry or part of it): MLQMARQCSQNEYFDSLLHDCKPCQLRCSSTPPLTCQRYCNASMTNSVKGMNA
T5 sequence (P07766 23-207): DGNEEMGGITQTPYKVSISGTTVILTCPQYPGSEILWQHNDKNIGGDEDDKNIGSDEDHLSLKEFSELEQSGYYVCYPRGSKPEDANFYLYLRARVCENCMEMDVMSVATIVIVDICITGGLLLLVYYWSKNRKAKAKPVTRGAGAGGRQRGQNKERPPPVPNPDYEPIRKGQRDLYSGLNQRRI
human GPRC5D (full-length, on cells), sequence (Q9NZD1 whole entry): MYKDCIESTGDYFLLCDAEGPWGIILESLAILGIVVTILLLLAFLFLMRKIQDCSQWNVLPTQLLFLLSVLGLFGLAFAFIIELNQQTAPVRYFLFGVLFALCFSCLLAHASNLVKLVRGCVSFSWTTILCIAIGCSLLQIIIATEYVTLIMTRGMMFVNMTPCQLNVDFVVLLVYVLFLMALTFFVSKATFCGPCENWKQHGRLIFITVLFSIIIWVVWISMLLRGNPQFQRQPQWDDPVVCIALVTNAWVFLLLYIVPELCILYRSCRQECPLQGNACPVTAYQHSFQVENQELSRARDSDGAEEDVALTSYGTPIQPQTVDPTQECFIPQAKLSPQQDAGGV

| Binder | EC50 of PBMC killing of H929 ko GPRC5D cells, donor1 [1] [nM] | Kd (human CD3E&G-His/Free) [nM] | koff (human CD3E&G-His/Free) [s⁻¹] | kon (human CD3E&G-His/Free) [M⁻¹ s⁻¹] | Kd (cyno CD3E&G-His/Free) [nM] | koff (cyno CD3E&G-His/Free) [s⁻¹] | kon (cyno CD3E&G-His/Free) [M⁻¹ s⁻¹] | Kd (Cyno BCMA-His) [nM] | koff (Cyno BCMA-His) [s⁻¹] | kon (Cyno BCMA-His) [M⁻¹ s⁻¹] | EC50 of PBMC killing of H929 ko GPRC5D cells (LDH) [3] [nM] | EC50 [5] [nM] | EC50 [6] [nM] | EC50 [7] [nM] | EC50 [8] [nM] | EC50 [9] [nM] | EC50 of PBMC killing of H929 ko GPRC5D cells (LDH) [10] [nM] | further results |
| --- | --- | --- | --- | --- | --- | --- | --- | --- | --- | --- | --- | --- | --- | --- | --- | --- | --- | --- |
| B1 | 0.167 | 64.1 | 0.0152 | 236000 | 58.6 | 0.012 | 205000 | 0.244 | 0.0002 | 821000 |  |  |  |  |  |  |  |  |
| B2 |  |  |  |  |  |  |  |  |  |  | 0.182 |  |  |  |  |  |  | binding result [2]: no binding; EC50 of PBMC killing of H929 ko BCMA cells (LDH) [4]: 0.0105 nM |
| B3 |  | 15.4 | 0.0057 | 370000 | 12.1 | 0.00481 | 396000 | 17.5 | 0.0338 | 1.94e+06 |  | 24.6 | 25.9 | 829 | 6.39 |  |  |  |
| B4 |  | 14.4 | 0.00874 | 608000 | 10.2 | 0.00675 | 662000 |  |  |  |  | 42.4 | 43.4 | 9.69 |  | 7.36 | 0.0751 |  |
| B5 | 0.0045 | 13 | 0.00469 | 361000 |  |  |  | 0.89 | 0.00125 | 1.4e+06 |  |  |  | 3.81 |  | 3.08 | 0.0161 |  |
| B6 | 0.0395 |  |  |  |  |  |  | 14 | 0.0108 | 767000 | 0.0375 | 31.9 | 33.4 | 1320 | 12 | 59.2 |  | EC50 [2]: 76.1 nM; binding result (human CD3E&G-His/Free): no binding (tested: 100 nM); binding result (cyno CD3E&G-His/Free): no binding (tested: 100 nM) |
